The supplement of paper PMC12764529
± gives the half width of the 95% confidence interval.

Experiments:
[1] = folding stability dG unfold from trypsin proteolysis; higher = more stable
In short: (§1)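 Mini-proteins designed to be under 80 residues and free of cysteine were carried in a PA-tagged cDNA display construct and digested with trypsin and with chymotrypsin. Each protease was applied at 11 threefold-diluted concentrations, alongside a no-protease condition, before sequencing. K50 came from Bayesian fitting of the sequencing counts, and unfolding free energy was obtained by comparing it with a sequence-predicted unfolded-state K50 and a shared folded-state K50, for each protease separately or for both together. Designs were retained only if their AlphaFold2 dimer inter-PAE exceeded 15.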

[2] = folding stability dG unfold from chymotrypsin proteolysis; higher = more stable
In short: as §1

[3] = folding stability dG unfold (combined trypsin and chymotrypsin); higher = more stable
In short: as §1

Sequence: SAGGLKEIAKQLGPGADKVEIEWEPQPHDDMEMYRWKIRVKNPNNGKKRKLEVSIMYDPNGNIRSIMISAGG [r13_358_TrROS]
- folding stability dG unfold [1]: 1.85 ± 0.12 kcal/mol
- folding stability dG unfold [2]: 2.38 ± 0.077 kcal/mol
- folding stability dG unfold [3]: 2.34 ± 0.14 kcal/mol

Sequence: SAGGLKIVETKTEPEIGKRYVVIEVYKPETGKPILYVVPLDLEKGENSPEAVAKAILKELKLPPGVKASAGG [r13_362_TrMRF]
- folding stability dG unfold [1]: 0.58 ± 0.082 kcal/mol
- folding stability dG unfold [2]: 1.71 ± 0.16 kcal/mol
- folding stability dG unfold [3]: 1.24 ± 0.18 kcal/mol

Sequence: SAGGLLVADEAGVPLSPVPPVPPIPVQVTFPDGTKVTIEYYPGLNEVKVEYEGDDPAKVAEIVKEILKSAGG [r13_701_JUSTAS]
- folding stability dG unfold [1]: 0.146 ± 0.15 kcal/mol
- folding stability dG unfold [2]: 0.444 ± 0.11 kcal/mol
- folding stability dG unfold [3]: 0.443 ± 0.13 kcal/mol

Sequence: SAGGLNIKFEILEVYPSPNGMRMIIVRMTIEYPVPVYRRDPNGEWRPMPPGQEPVTIEIDFYIMVTPSAGGS [r16_693_TrROS]
- folding stability dG unfold [1]: 3.67 ± 0.11 kcal/mol
- folding stability dG unfold [2]: 5.11 ± 0.13 kcal/mol
- folding stability dG unfold [3]: 4.76 ± 0.18 kcal/mol

Sequence: SAGGLPGLSAEELARRLAERLREALAAAGYTVEIELTVEITVTDEDGRTRTFTFTLRIRVEPPPPPPSAGGS [r16_550_TrROS_Hall]
- folding stability dG unfold [1]: 4.05 ± 0.069 kcal/mol
- folding stability dG unfold [2]: 5.15 ± 0.074 kcal/mol
- folding stability dG unfold [3]: 4.8 ± 0.12 kcal/mol

Sequence: SAGGLPPGWKPIDIMVLVPPGEPLTEDQVEELAKEIARELQEKGVTIDVRVWPTDDWYFVSVDIQVPDSAGG [r13_442_TrROS]
- folding stability dG unfold [1]: 2.08 ± 0.11 kcal/mol
- folding stability dG unfold [2]: 1.31 ± 0.13 kcal/mol
- folding stability dG unfold [3]: 1.73 ± 0.18 kcal/mol

Sequence: SAGGLRVHPNSLYIWIPPGGNFDDFVKEIAQELQKKGKPMEIKVEPFPDGWYWIRIKVDGKDIEIWMSAGGS [r16_771_TrROS]
- folding stability dG unfold [1]: 2.02 ± 0.065 kcal/mol
- folding stability dG unfold [2]: 3.24 ± 0.039 kcal/mol
- folding stability dG unfold [3]: 3.02 ± 0.1 kcal/mol

Sequence: SAGGLSYIELEVEFPGGGSFEEAKARAEKLAEEVRKKLGLKEVKIEIKKNPDGSYRVKITIKVPSKLSAGGS [r8_3_JUSTAS]
- folding stability dG unfold [1]: 2.76 ± 0.063 kcal/mol
- folding stability dG unfold [2]: 3.04 ± 0.077 kcal/mol
- folding stability dG unfold [3]: 3.02 ± 0.14 kcal/mol

Sequence: SAGGMADEELANMSLEEVIAAVKEAGAKTVTVTFPDGSTLTIDLGDDGVVTVTLTTPPGEKETFEIPSAGGS [r8_51_TrMRF]
- folding stability dG unfold [1]: 2.34 ± 0.17 kcal/mol
- folding stability dG unfold [2]: 2.73 ± 0.088 kcal/mol
- folding stability dG unfold [3]: 2.59 ± 0.11 kcal/mol

Sequence: SAGGMAVPVKVRDPVNGNWKTLDNIESIDEVVEVDPTDGSRSYFVKLKGSGKWYVVDDPEAVEAAKGSAGGS [r8_206_TrMRF]
- folding stability dG unfold [1]: 1.17 ± 0.064 kcal/mol
- folding stability dG unfold [2]: 1.08 ± 0.14 kcal/mol
- folding stability dG unfold [3]: 1.12 ± 0.13 kcal/mol

Sequence: SAGGMEEIEVEFEFTLPDGRTLRLTVRVRRFDGGIVVEVDVGGEEEEEREFMEEVAREIAERIAEEESAGGS [r8_416_TrMRF]
- folding stability dG unfold [1]: 2.92 ± 0.07 kcal/mol
- folding stability dG unfold [2]: 4.51 ± 0.11 kcal/mol
- folding stability dG unfold [3]: 4.12 ± 0.093 kcal/mol

Sequence: SAGGMEEILKKLGVKKGDKVKIKIKVEKDGKTETVEIEVPVENLEDILKKLGLSKDQVKITEIKVEKESAGG [r13_681_TrROS_Hall]
- folding stability dG unfold [1]: 2.17 ± 0.14 kcal/mol
- folding stability dG unfold [2]: 3.84 ± 0.1 kcal/mol
- folding stability dG unfold [3]: 3.4 ± 0.073 kcal/mol

Sequence: SAGGMEEIVKALPPEAGVVEIESEPLPLEDSILRRYRLRVYNPATGKWEELEVLIEYDKDGNIRRIVASAGG [r13_358_TrMRF]
- folding stability dG unfold [1]: 2.5 ± 0.043 kcal/mol
- folding stability dG unfold [2]: 3.94 ± 0.051 kcal/mol
- folding stability dG unfold [3]: 3.6 ± 0.2 kcal/mol

Sequence: SAGGMEEVIKELAKSLGVTKILPESEAKKLSSSVPNALAAVKLPDGSYVLIKRNSDGSVSSIKYKLESAGGS [r16_686_JUSTAS]
- folding stability dG unfold [1]: 1.14 ± 0.018 kcal/mol
- folding stability dG unfold [2]: 1.83 ± 0.087 kcal/mol
- folding stability dG unfold [3]: 1.54 ± 0.1 kcal/mol

Sequence: SAGGMEIKVTVEKREDGYLVVTVEKAESKEEAIEAIKKELREKYPDAEITITDKDGNTIVIKLKDLKSAGGS [r8_236_TrROS_Hall]
- folding stability dG unfold [1]: 1.16 ± 0.071 kcal/mol
- folding stability dG unfold [2]: 2.52 ± 0.1 kcal/mol
- folding stability dG unfold [3]: 2.06 ± 0.067 kcal/mol

Sequence: SAGGMEKIEIEVENEDGEKVKIEIYFDEETGFIVVKIEGENPELIDALKKKLGLEIVEKREDGYLVFKSAGG [r13_937_TrROS_Hall]
- folding stability dG unfold [1]: 3.01 ± 0.24 kcal/mol
- folding stability dG unfold [2]: 3.72 ± 0.13 kcal/mol
- folding stability dG unfold [3]: 3.48 ± 0.23 kcal/mol

Sequence: SAGGMEKVKVRVFFIDEETGEPREVEVEATLEELRELIEKIPDKGRVLVKLELPDEERIVTLEELKERSAGG [r13_254_TrMRF]
- folding stability dG unfold [1]: 1.79 ± 0.065 kcal/mol
- folding stability dG unfold [2]: 3.23 ± 0.1 kcal/mol
- folding stability dG unfold [3]: 2.76 ± 0.15 kcal/mol

Sequence: SAGGMELEKAIEFAKETGKEVEIEIEVEDENGKPFVIRVRVKVKPDPEDPNKYKIEVEVEVFPKEELSAGGS [r16_323_TrMRF]
- folding stability dG unfold [1]: 3.61 ± 0.19 kcal/mol
- folding stability dG unfold [2]: 4.38 ± 0.13 kcal/mol
- folding stability dG unfold [3]: 4.08 ± 0.12 kcal/mol
